According to patent US20160340683A1, “NANOCARRIER BASED PLANT TRANSFECTION AND TRANSDUCTION” (HER MAJESTY THE QUEEN IN RIGHT OF CANADA AS REPRESENTED BY …, priority 2007, published 2016):

Test system: isolated microspores of Triticale (variety Sunray)
Assay: CPP delivery of GUS enzyme into isolated microspores, GUS staining
Type: cell-based
Conditions: GUS enzyme cargo:CPP 1:4, 1 hour at 37° C., three repeats
Protocol: Triticale line Sunray grown in a growth cabinet with a photoperiod of 19 h day (intensity 300 μE m-2 s-1), and temperature 18-15° C. (day-night) with a relative humidity at about 70% was used as the donor plant material. The plants were fertilized every 2 weeks (20-20-20, 200 ppm) and treated with 2.5 ml I-1 Tilt™ (propiconazole, Syngenta) during the tillering stage and Intercept™ (0.004 g per litre of soil, Imidacloprid, Bayer) once sufficient root development was established. The first 10 tillers from each pot were harvested when the spike was at 3-4 cm, depending on the crop, from emergence from the boot. These tillers (to be used for microspore isolation) were subjected to pre-treatment in a refrigerator (4° C.) for 21 days with their bases in distilled water and their heads wrapped in aluminum foil. After 21±3 days of pre-treatment, the spikes were excised from their tillers and after an evaluation of their general appearance, only the most homogenous spikes were used. After confirming microspores at mid to bi-nucleate stage from a median floret, using acetocarmine staining, the tillers were processed for extraction.
Awns were removed with scissors in a laminar flow hood. […] After counting the cells using a haemocytometer, aliquots of 100,000 cells in 200 μl volume were prepared in 2 ml microcentrifuge tubes to be ready for transduction. […]

B1: Gus protein: β-Glucuronidase (GUS; Sigma Aldrich, Escherichia coli Type VII-A), cargo used alone (protein, UniProt P05804 1-603, looked up)
Beta-glucuronidase: MLRPVETPTREIKKLDGLWAFSLDRENCGIDQRWWESALQESRAIAVPGSFNDQFADADIRNYAGNVWYQREVFIPKGWAGQRIVLRFDAVTHYGKVWVNNQEVMEHQGGYTPFEADVTPYVIAGKSVRITVCVNNELNWQTIPPGMVITDENGKKKQSYFHDFFNYAGIHRSVMLYTTPNTWVDDITVVTHVAQDCNHASVDWQVVANGDVSVELRDADQQVVATGQGTSGTLQVVNPHLWQPGEGYLYELCVTAKSQTECDIYPLRVGIRSVAVKGEQFLINHKPFYFTGFGRHEDADLRGKGFDNVLMVHDHALMDWIGANSYRTSHYPYAEEMLDWADEHGIVVIDETAAVGFNLSLGIGFEAGNKPKELYSEEAVNGETQQAHLQAIKELIARDKNHPSVVMWSIANEPDTRPQGAREYFAPLAEATRKLDPTRPITCVNVMFCDAHTDTISDLFDVLCLNRYYGWYVQSGDLETAEKVLEKELLAWQEKLHQPIIITEYGVDTLAGLHSMYTDMWSEEYQCAWLDMYHRVFDRVSAVVGEQVWNFADFATSQGILRVGGNKKGIFTRDRKPKSAAFLLQKRWTGMNFGEKPQQGGKQ
Average Transduction Efficiency: not capable of transducing itself
